Some targets named below: Elastase; MMP3 (human, UniProt P08254 100-477, limits assumed); MMP9 (human, UniProt P14780 107-707, limits assumed); MMP8 (human, UniProt P22894 101-467, limits assumed); MMP13 (human, UniProt P45452 104-471, limits assumed).
Common to all, as to test: cell-based or functional assay
Another assay has as its target T1, Cathepsin G (UniProt P08311 21-244).
T1 sequence (looked up): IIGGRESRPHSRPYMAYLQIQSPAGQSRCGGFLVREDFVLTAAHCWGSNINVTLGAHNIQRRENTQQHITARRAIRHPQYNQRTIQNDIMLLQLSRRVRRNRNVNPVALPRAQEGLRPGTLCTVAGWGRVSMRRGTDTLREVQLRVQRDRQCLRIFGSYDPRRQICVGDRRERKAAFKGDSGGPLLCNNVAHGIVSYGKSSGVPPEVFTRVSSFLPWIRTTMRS

In a further assay the target is T2, MMP7 (UniProt P09237 95-267, limits assumed).
T2 sequence (looked up): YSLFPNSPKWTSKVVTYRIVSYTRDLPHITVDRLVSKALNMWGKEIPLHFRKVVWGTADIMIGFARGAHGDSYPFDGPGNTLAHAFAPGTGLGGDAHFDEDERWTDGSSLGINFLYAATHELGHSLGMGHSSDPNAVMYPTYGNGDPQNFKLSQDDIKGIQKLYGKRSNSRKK

A further assay concerns the target T3, ADAMTS4 (human, UniProt O75173 213-685, limits assumed).
T3 sequence (looked up): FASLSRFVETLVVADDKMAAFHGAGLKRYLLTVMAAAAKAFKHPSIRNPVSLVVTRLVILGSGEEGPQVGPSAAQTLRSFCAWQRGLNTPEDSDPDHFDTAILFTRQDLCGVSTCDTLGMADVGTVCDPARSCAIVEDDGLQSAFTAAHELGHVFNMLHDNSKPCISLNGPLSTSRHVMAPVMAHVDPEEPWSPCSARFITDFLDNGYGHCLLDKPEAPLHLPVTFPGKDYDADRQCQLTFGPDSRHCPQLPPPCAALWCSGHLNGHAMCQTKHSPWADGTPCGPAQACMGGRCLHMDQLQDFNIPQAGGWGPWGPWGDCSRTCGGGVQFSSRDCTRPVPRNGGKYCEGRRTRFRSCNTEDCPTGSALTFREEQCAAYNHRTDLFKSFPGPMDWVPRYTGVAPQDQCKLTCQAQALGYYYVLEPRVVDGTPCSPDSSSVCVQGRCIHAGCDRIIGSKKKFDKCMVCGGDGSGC

Another assay addresses T4, ADAMTS5 (human, UniProt Q9UNA0 262-622, limits assumed).
T4 sequence (looked up): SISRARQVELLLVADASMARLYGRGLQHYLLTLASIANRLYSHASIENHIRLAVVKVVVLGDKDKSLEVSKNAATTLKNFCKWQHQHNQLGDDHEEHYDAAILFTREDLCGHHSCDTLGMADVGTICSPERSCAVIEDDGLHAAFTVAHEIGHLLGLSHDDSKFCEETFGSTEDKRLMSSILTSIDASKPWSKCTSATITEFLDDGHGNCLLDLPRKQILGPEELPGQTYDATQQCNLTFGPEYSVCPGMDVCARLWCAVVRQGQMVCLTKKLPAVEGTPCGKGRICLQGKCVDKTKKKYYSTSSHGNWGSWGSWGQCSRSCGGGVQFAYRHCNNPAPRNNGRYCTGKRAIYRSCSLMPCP

A further assay deals with T5, MMP2 (human, UniProt P08253 110-660, limits assumed).
T5 sequence (looked up): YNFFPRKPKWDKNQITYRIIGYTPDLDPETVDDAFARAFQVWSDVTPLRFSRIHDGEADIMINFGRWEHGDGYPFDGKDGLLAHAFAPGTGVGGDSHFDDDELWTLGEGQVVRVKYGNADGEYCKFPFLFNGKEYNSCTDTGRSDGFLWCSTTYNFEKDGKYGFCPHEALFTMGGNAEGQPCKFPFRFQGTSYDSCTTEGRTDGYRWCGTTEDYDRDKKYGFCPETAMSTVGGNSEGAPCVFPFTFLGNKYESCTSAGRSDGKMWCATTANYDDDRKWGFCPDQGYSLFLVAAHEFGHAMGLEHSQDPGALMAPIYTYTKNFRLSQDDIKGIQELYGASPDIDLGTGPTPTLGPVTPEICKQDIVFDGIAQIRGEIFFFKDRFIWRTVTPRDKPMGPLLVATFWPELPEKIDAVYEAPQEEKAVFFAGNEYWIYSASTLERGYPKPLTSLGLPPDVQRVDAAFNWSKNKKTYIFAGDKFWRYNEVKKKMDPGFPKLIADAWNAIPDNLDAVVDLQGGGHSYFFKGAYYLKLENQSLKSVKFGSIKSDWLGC

A further assay deals with T6, MMP1 (human, UniProt P03956 100-469, limits assumed).
T6 sequence (looked up): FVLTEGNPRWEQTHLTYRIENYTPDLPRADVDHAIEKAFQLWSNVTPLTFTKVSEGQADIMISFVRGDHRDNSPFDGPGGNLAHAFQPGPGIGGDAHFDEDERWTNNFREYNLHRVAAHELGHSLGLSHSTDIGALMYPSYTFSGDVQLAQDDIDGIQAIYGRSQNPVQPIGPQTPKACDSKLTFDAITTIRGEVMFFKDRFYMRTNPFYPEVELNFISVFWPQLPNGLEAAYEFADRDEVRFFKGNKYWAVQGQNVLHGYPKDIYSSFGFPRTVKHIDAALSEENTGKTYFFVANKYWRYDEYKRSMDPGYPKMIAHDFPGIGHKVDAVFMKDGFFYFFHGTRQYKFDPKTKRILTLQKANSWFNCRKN

Sequence of MMP9 (P14780 107-707 limits assumed): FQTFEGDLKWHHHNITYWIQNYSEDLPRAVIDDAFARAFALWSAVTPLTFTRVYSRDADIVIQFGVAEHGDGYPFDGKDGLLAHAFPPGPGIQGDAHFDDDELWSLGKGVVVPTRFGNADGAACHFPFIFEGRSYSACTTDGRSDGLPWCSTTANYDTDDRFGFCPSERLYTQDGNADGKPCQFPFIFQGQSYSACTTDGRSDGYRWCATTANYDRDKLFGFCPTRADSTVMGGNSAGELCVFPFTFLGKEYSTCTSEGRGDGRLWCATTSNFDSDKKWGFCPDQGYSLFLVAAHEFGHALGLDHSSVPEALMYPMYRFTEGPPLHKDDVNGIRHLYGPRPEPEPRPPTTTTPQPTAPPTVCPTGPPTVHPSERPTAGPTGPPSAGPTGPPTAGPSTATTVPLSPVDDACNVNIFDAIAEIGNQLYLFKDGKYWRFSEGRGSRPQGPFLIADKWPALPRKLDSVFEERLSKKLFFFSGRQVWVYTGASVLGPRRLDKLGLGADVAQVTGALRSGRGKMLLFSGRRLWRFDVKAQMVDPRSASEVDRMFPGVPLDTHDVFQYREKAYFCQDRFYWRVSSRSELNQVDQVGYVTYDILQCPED
Sequence of MMP3 (P08254 100-477 limits assumed): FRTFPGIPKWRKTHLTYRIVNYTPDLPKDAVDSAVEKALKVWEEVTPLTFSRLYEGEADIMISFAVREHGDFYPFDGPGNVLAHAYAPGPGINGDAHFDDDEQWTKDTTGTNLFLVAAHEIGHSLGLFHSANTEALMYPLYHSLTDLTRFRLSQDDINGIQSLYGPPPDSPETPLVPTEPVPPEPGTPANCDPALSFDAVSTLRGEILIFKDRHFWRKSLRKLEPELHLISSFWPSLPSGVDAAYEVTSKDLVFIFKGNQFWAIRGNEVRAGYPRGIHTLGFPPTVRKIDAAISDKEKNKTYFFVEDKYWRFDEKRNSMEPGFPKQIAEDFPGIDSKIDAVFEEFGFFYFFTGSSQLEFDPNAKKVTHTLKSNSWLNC
Sequence of MMP8 (P22894 101-467 limits assumed): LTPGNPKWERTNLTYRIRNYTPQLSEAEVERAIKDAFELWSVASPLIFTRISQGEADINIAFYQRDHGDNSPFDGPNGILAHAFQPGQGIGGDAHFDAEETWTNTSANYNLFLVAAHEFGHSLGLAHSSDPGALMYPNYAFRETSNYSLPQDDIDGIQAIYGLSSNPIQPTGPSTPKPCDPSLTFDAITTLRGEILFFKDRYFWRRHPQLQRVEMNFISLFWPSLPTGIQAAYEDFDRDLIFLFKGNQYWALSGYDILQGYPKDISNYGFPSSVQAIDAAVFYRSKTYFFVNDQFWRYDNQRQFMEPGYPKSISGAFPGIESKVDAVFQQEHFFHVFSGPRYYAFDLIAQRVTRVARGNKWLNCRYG

B1: Variant A2M, bait region SEQ ID NO 20 (other)
chain: SVSGKPQYMVLVPSLLHTETTEKGCVLLSYLNETVTVSASLESVRGNRSLFTDLEAENDVLHCVAFAVPKSSSNEEVMFLTVQVKGPTQEFKKRTTVMVKNEDSLVFVQTDKSIYKPGQTVKFRVVSMDENFHPLNELIPLVYIQDPKGNRIAQWQSFQLEGGLKQFSFPLSSEPFQGSYKVVVQKKSGGRTEHPFTVEEFVLPKFEVQVTVPKIITILEEEMNVSVCGLYTYGKPVPGHVTVSICRKYSDASDCHGEDSQAFCEKFSGQLNSHGCFYQQVKTKVFQLKRKEYEMKLHTEAQIQEEGTVVELTGRQSSEITRTITKLSFVKVDSHFRQGIPFFGQVRLVDGKGVPIPNKVIFIRGNEANYYSNATTDEHGLVQFSINTTNVMGTSLTVRVNYKDRSPCYGYQWVSEEHEEAHHTAYLVFSPSKSFVHLEPMSHELPCGHTQTVQAHYILNGGTLLGLKKLSFYYLIMAKGGIVRTGTHGLLVKQEDMKGHFSISIPVKSDIAPVARLLIYAVLPTGDVIGDSAKYDVENCLANKVDLSFSPSQSLPASHAHLRVTAAPQSVCALRAVDQSVLLMKPDAELSASSVYNLLPEKDLTGFPGPLNDQDDEDCINRHNVYINGITYTPVSSTNEKDMYSFLEDMGLKAFTNSKIRKPKMCPQLEHGPEFRGVTEGEGEGIPENFYGVSEDLVVQISELEGRGSVEEPHTKLRKYFPETWIWDLVVVNSAGVAEVGVTVPDTITEWKAGAFCLSEDAGLGISSTASLRAFQPFFVELTMPYSVIRGEAFTLKATVLNYLPKCIRVSVQLEASPAFLAVPVEKEQAPHCICANGRQTVSWAVTPKSLGNVNFTVSAEALESQELCGTEVPSVPEHGRKDTVIKPLLVEPEGLEKETTFNSLLCPSGGEVSEELSLKLPPNVVEESARASVSVLGDILGSAMQNTQNLLQMPYGCGEQNMVLFAPNIYVLDYLNETQQLTPEIKSKAIGYLNTGYQRQLNYKHYDGSYSTFGERYGRNQGNTWLTAFVLKTFAQARAYIFIDEAHITQALIWLSQRQKDNGCFRSSGSLLNNAIKGGVEDEVTLSAYITIALLEIPLTVTHPVVRNALFCLESAWKTAQEGDHGSHVYTKALLAYAFALAGNQDKRKEVLKSLNEEAVKKDNSVHWERPQKPKAPVGHFYEPQAPSAEVEMTSYVLLAYLTAQPAPTSEDLTSATNIVKWITKQQNAQGGFSSTQDTVVALHALSKYGAATFTRTGKAAQVTIQSSGTFSSKFQVDNNNRLLLQQVSLPELPGEYSMKVTGEGCVYLQTSLKYNILPEKEEFPFALGVQTLPQTCDEPKAHTSFQISLSVSYTGSRSASNMAIVDVKMVSGFIPLKPTVKMLERSNHVSRTEVSSNHVLIYLDKVSNQTLSLFFTVLQDVPVRDLKPAIVKVYDYYETDEFAIAEYNAPCSKDLGNADYKDDDDKGASHHHHHH
In the case of B1, the “Protease Inhibition (% of WT)” value with Elastase is 124 % of WT; with Cathepsin G, 117 % of WT; with MMP3 it was 122 % of WT; with MMP7, 170 % of WT; with ADAMTS4 it was 201 % of WT; with MMP9 it was 41 % of WT. Moreover, the “Protease Inhibition (% of WT)” value with ADAMTS5 is 246 % of WT; in the assay with MMP8 it was 64 % of WT; with MMP2, 37 % of WT; with MMP1 it was 119 % of WT; in the assay with MMP13, 100 % of WT.

For the origin of these results see patent US20230250154A1 (CYTONICS, published 2023).
